Data from patent US20250000946A1 (WUXI BIOLOGICS IRELAND, published 2025).

Tests used:
[1] = target: T1, W3XX115-hPro1.ECD.His, IL2Rα ECD (Homo sapiens (Human), UniProt P01589 22-213); experiment: SPR Biacore 8K
T1 construct: Entry includes the C-terminal 6xHis tag; also called CD25
T1 sequence: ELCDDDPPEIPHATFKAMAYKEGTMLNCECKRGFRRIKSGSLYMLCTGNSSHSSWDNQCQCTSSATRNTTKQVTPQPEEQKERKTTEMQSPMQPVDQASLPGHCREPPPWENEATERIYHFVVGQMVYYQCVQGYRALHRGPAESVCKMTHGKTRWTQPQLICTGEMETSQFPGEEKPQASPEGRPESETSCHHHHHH
Protocol: (§1) IL-2 variants binding affinity to IL-2 receptor were detected by SPR using Biacore 8K. For IL-2Rα binding assay, each variant was captured on anti-human Fc immobilized CM5 sensor chip (cytiva). W3XX115-hPro1.ECD.His at different concentrations were injected over the sensor chip at a flow rate of 30 uL/min for an association phase of 60 s, followed by 90 s dissociation. The chip was then regenerated by 10 mM Glycine-HCl pH1.5 after each binding cycle. For IL-2Rγ binding assay, IL-2 variants were mixed with W369-hPro2.ECD.His as 1:1 before assay, were detected by SPR using Biacore 8K. W3XX115-hPro1.ECD.His was captured on anti-His immobilized CM5 sensor chip (cytiva). The mixture were injected over the sensor chip as described above. The sensorgrams of blank surface and buffer channel were subtracted from the test sensorgrams. The experimental data was fitted by steady state affinity model. Molecular weight of W3XX115-hPro1.ECD.His or W369-hPro1.ECD.His was used to calculate the molar concentration of analyte.
(§2) For T3U0.E44-1 and T2U0.E44-33, no binding to IL-2Rα was detected.

[2] = target: T2, Human IL-2Rβ/γ (intermediate affinity IL-2 receptor) (human, UniProt P14784 27-551; P31785 23-369); experiment: FACS, HH cells
T2 construct: whole, on cells; also called IL-2Rβ/γc; IL-2Rβ (CD122) and γ (CD132)
T2 sequence (looked up) 1: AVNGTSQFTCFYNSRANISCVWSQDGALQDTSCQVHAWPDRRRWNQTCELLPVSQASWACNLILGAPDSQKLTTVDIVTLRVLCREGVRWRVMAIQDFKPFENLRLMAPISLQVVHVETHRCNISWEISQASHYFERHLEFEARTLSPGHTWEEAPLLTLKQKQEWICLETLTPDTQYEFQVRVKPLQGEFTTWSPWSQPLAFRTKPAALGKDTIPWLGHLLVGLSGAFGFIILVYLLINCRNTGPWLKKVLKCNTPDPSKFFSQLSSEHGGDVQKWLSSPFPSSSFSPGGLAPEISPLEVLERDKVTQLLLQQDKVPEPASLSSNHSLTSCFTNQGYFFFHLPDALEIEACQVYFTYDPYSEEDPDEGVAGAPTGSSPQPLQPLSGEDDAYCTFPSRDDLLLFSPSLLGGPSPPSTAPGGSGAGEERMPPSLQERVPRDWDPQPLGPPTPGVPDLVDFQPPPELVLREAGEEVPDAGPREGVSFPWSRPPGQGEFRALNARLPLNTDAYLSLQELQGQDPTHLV
T2 sequence (looked up) 2: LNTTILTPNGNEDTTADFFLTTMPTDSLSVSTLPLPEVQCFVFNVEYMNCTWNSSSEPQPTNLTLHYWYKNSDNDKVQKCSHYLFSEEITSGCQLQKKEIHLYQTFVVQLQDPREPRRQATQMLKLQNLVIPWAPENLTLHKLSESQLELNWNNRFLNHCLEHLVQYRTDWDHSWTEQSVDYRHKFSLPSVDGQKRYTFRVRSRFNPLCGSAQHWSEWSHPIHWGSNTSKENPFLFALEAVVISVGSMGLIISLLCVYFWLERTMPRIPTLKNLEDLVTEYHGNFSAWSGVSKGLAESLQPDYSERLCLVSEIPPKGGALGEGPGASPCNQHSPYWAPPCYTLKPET
Method in brief: (§3)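 Readout is median fluorescence intensity by FACS after PE-anti-human Fc detection of IL-2/Fc fusion proteins bound to cells. Binding was done for 30 min at 4° C. to avoid internalization, with secondary staining for a further 30 min at 4° C.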

[3] = target: T3, Human IL-2Rα/β/γ complex (high affinity IL-2 receptor) (human, UniProt P01589 22-272; P14784 27-551; P31785 23-369); experiment: FACS, MJ20 cells
T3 construct: whole, on cells
T3 sequence (looked up) 1: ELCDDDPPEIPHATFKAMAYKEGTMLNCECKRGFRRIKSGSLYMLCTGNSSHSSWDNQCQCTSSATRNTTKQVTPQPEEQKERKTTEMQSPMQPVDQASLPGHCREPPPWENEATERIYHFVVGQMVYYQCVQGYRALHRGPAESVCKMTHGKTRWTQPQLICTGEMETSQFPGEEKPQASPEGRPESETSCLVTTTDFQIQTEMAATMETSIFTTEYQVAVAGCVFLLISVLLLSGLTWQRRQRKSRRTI
T3 sequence (looked up) 2: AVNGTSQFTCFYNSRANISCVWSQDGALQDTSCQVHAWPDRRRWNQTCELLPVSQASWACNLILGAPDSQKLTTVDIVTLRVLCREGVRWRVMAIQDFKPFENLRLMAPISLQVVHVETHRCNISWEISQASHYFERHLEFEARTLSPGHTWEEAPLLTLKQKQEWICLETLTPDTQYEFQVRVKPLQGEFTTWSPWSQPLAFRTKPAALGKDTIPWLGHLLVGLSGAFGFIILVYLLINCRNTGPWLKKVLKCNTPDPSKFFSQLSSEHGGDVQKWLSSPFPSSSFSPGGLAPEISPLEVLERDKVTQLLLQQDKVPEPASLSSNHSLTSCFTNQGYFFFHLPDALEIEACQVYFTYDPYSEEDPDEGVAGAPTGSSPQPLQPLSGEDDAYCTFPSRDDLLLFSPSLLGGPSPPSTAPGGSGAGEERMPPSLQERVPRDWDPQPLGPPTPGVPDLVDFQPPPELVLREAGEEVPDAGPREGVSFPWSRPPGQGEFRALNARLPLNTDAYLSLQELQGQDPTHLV
T3 sequence (looked up) 3: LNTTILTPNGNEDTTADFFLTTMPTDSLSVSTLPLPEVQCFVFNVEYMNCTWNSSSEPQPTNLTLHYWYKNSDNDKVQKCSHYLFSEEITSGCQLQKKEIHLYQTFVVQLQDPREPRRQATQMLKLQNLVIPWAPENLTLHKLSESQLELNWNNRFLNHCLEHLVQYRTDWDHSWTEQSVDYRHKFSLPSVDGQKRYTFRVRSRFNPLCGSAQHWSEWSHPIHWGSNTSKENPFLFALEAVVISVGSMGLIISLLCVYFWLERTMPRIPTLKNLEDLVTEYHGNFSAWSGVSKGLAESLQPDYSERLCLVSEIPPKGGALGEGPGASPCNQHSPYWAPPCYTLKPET
Method in brief: as §3

[4] = target: T2, Human IL-2Rβ/γ (intermediate affinity …); experiment: cell-based or functional assay
[5] = target: T3, Human IL-2Rα/β/γ complex (high affinity …); experiment: cell-based or functional assay
[6] = target: T2, Human IL-2Rβ/γ (intermediate affinity …); experiment: FACS, HH cells; EC50 fold vs T2U0.E44-1
Method in brief: as §3

[7] = target: T3, Human IL-2Rα/β/γ complex (high affinity …); experiment: FACS, MJ20 cells; EC50 fold vs T2U0.E44-1
Protocol: Human cutaneous T cell lymphoma HH cells, malignant non-Hodgkin's lymphoma NK92 cells and cutaneous T cell lymphoma MJ20 cells were used for binding assay. They both constitutively express IL-2Rβ (CD122) and […] (CD132), and NK92 and MJ20 also expresses IL-2Rα (CD25). HH, NK92 and MJ20 cells were cultured following ATCC guidance, then transferred to a 96-plate for binding analysis. Cells were incubated with IL-2/Fc fusion proteins at the indicated concentrations for 30 min at 4° C. to avoid internalization. Binding was detected by 2nd antibody of PE-anti-human Fc at 4° C. for another 30 min. The median fluorescence intensity (MFI) on HH and NK92 cells was measured using FACS.
Mutations of F42 or R38 were involved in T2U0.E44-26 to generate IL-2 variants.

[8] = target: T4, W369-hPro2.ECD.His, IL2Rβ ECD (human, UniProt P14784 27-239); experiment: SPR Biacore 8K; set-up for IL-2Rβ not described
T4 construct: Entry includes linker and C-terminal 6xHis tag; also called CD122
T4 sequence: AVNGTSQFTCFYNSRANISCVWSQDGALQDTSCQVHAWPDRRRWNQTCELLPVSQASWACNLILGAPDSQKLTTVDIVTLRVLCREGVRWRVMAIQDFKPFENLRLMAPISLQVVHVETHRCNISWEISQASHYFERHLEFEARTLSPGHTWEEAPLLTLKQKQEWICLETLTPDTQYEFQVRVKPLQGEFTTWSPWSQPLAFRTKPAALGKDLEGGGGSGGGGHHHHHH

[9] = target: T1, W3XX115-hPro1.ECD.His, IL2Rα ECD; experiment: SPR Biacore 8K; variant captured via anti-human Fc, IL-2Rα ECD-His injected; steady state
Protocol: as §1, §2

- fold affinity reduction compared to T2U0.E44-1 [1]: ~10 fold
- EC50 [2]: 760 nM
- EC50 [3]: 627 nM
- Human CD8+ T Potency EC50 (STAT5 phosphorylation) [4]: 149 nM
- Human CD8+ T Potency reduction [4]: 41 fold
- Human Treg Potency EC50 (STAT5 phosphorylation) [5]: 0.42 nM
- Human Treg Potency reduction [5]: 302 fold
- Affinity reduction [6]: 15 fold
- Affinity reduction [7]: 13.7 fold
- Kd [8]: 5870 nM
- Kd [9]: 1030 nM
B1: W3XX115-T2U0.E44-33.uIgG4V322 (Fc fusion)
chain: APTSSSTKKTQLQLEHLLLDLQMILNGINNYKNPKLTWMLTFKFYMPKKATELKHLQCLEEELKPLEEVLNLAQSKNFHLRPRDLISNINVIVLELKGSETTFMCEYADETATIVEFLNRWITFCQSILESKYGPPCPPCPAPEAAGGPSVFLFPPKPKDTLMISRTPEVTCVVVDVSQEDPEVQFNWYVDGVEVHNAKTKPREEQFNSTYRVVSVLTVLHQDWLNGKEYKCKVSNKGLPSSIEKTISKAKGQPREPQVYTLPPCQEEMTKNQVSLWCLVKGFYPSDIAVEWESNGQPENNYKTTPPVLDSDGSFFLYSRLTVDKSRWQEGNVFSCSVMHEALHNHYTQKSLSLSLG
heavy: EIQLQQSGPELVKPGASVKVSCKASGYSFTDYNMYWVKQSHGESLEWIGYIDPYNGGTRYNQKFKGKATLTVDKSSSTAFMHLNSLTSEDSAVYYCARNGHWDGAWFAYWGQGTLVTVSAASTKGPSVFPLAPCSRSTSESTAALGCLVKDYFPEPVTVSWNSGALTSGVHTFPAVLQSSGLYSLSSVVTVPSSSLGTKTYTCNVDHKPSNTKVDKRVESKYGPPCPPCPAPEAAGGPSVFLFPPKPKDTLMISRTPEVTCVVVDVSQEDPEVQFNWYVDGVEVHNAKTKPREEQFNSTYRVVSVLTVLHQDWLNGKEYKCKVSNKGLPSSIEKTISKAKGQPREPQVCTLPPSQEEMTKNQVSLSCAVKGFYPSDIAVEWESNGQPENNYKTTPPVLDSDGSFFLVSRLTVDKSRWQEGNVFSCSVMHEALHNHYTQKSLSLSLG
light: DIQMNQSPSSLSASLGDTITITCHASQNINVWLSWYQQKPGNIPKLLIYKASNLHTGVPSRFSGSRSGTGFTLTISSLQPEDIATYYCHQGQSYPFTFGSGTKLEIKRTVAAPSVFIFPPSDEQLKSGTASVVCLLNNFYPREAKVQWKVDNALQSGNSQESVTEQDSKDSTYSLSSTLTLSKADYEKHKVYACEVTHQGLSSPVTKSFNRGEC
